{"source": "patent US20170260257A1", "binders": {"B1": {"name": "the antibody of the present invention comprising a heavy-chain variable region having amino acid sequence of SEQ ID NO: 2 and a light-chain variable region … (antibody, V domains shown)", "VH": "EVQLVESGGGLVKPGGSLRLSCSASGFSLTKYKMTWVRQAPGKGLEWVSSISSTSRDIDYADSVKGRFTISRDNAKNSLFLQMSSLRVDDTAVYYCTRDGWLWGWDVRSNYYYNALDVWGQGTTVTVSS", "VL": "DIVVTQSPSSLSASVGDRVTITCRASQGIYNSIAWYQQKPGKAPKLLLYSTSTLLSGVPSRFSGSGSGTDYTLTITNLQPEDFATYYCQQYFVTPETFGQGTKLEIKR"}}, "biological_target": "BSA (UniProt P02769)", "sequence (P02769 25-607 limits assumed)": "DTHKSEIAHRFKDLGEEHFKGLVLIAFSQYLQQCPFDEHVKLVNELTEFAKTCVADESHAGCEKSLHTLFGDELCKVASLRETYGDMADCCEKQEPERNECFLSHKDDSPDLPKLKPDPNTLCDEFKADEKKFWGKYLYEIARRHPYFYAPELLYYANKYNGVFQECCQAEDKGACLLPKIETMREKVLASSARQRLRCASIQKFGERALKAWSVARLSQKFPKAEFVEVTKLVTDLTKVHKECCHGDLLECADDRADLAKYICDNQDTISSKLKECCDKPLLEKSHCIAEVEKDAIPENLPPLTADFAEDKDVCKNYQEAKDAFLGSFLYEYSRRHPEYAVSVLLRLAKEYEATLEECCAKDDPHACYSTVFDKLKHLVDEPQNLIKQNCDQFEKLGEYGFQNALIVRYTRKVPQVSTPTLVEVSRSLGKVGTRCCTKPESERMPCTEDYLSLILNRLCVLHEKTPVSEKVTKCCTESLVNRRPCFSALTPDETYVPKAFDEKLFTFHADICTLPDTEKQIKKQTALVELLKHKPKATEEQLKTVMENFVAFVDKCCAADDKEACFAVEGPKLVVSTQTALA", "experiment": "sandwich ELISA: plate coated with the antibody, BSA as negative sample, detection with sheep anti-HBsAg/peroxidase", "note": "Several values for one entry are separate records, joined by “and”; a condition that tells them apart may be missing. Identical values can stand only once."}
{"binder": "B1", "values": [{"measurement": "A450", "value": "0.251 A450 and 0.263 A450"}]}
